We go through 120 sequences from the supplement of paper PMC10126150.

± gives the standard deviation of the averaged measurements.
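Further: ATP exposure 15 min at 22 °C before imaging.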

For this series, the system named is ATP. Kind of series: switch fluorescence ratio, 500 uM ATP over buffer (Cy3 cluster intensity, sum of 5 cycles each) (fold (ratio)); higher = stronger signal-on switching upon ATP binding; sequences stand for … in TCGTCGGCAGCGTCAGATGTGTATAAGAGACAGTTTTTTTTTTTTTTTTTTTTTTTTT…TC. Conditions: aptamer strand: ATP DNA aptamer (quencher-CACCTGGGGGAGTATTGCGGAGGAAGG + anchor), 100 nM annealed; ATP concentration: 500 uM. In a few lines:
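Between each of five buffer/ATP cycles, the flow-cell was stripped with NaOH and re-annealed. Each cycle imaged Cy3-labelled switching-strand clusters, annealed to 100 nM quencher-labelled ATP aptamer on a modified Illumina MiSeq flow-cell, first in selection buffer and then after 15 min with 500 uM ATP at 22 °C. The fluorescence ratio is summed target-cycle over summed buffer-cycle Cy3 intensity per cluster, averaged per switch-domain sequence, with clusters outside 100-1000 RFU excluded.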
Take TTGTTGAGTC: the switch fluorescence ratio was found to be 1 ± 0.032.

In the case of AAAGCTTTGA, the switch fluorescence ratio is 0.983 ± 0.01.

As for CGTTGAGTTT, the switch fluorescence ratio came out at 0.994 ± 0.047.

As to GGGTCGGCAC, the switch fluorescence ratio worked out at 0.968 ± 0.035.

As to GAATTTGAGA, the switch fluorescence ratio worked out at 0.997 ± 0.019.

With GAGCGCGGCG, the switch fluorescence ratio was found to be 0.977 ± 0.048.

On to AGATGCTTTA, for which the switch fluorescence ratio turned out to be 0.9908 ± 0.0027.

As to AATCGGATAA, the switch fluorescence ratio came to 1.05 ± 0.019.

TGTGGGGAGT: the switch fluorescence ratio amounted to 0.952 ± 0.019.

Regarding GCTGACTTGT, the switch fluorescence ratio came to 0.977 ± 0.016.

As to TTGTTTGGGA, the switch fluorescence ratio is 1.02 ± 0.034.

For GGACAGGCGC, the switch fluorescence ratio came to 1.006 ± 0.0024.

For the sequence CGGAGGGGGA, the switch fluorescence ratio was found to be 0.973 ± 0.019.

On to AGTATGACGG, for which the switch fluorescence ratio worked out at 0.986 ± 0.036.

As for TTCTAAACGT, the switch fluorescence ratio is 1.06 ± 0.078.

Regarding GTGTATGCAA, the switch fluorescence ratio was 1.03 ± 0.029.

On to CGCTTTACCG, for which the switch fluorescence ratio was determined as 1 ± 0.051.

With ATTTCGGA, the switch fluorescence ratio was 0.975 ± 0.034.

Take AGCTGGGGTG: the switch fluorescence ratio was found to be 1.03 ± 0.06.

In the case of TTTACGGATT, the switch fluorescence ratio was 1.02 ± 0.048.

With AACAAGGGCT, the switch fluorescence ratio was 1.04 ± 0.014.

TGCCACGTAA: the switch fluorescence ratio was 1.3 ± 0.065.

With TGGGAAGGGT, the switch fluorescence ratio is 0.996 ± 0.059.

For TGTTTTACTA, the switch fluorescence ratio came to 0.986 ± 0.031.

As for ACCCTAGTTG, the switch fluorescence ratio amounted to 1.148 ± 0.0094.

As for GGAGAATTTT, the switch fluorescence ratio amounted to 1.04 ± 0.049.

For the sequence AAAAGCCCTT, the switch fluorescence ratio came out at 1.096 ± 0.0043.

As to TTCATCTGTT, the switch fluorescence ratio was 0.9711 ± 0.0084.

For the sequence TCACAATTTT, the switch fluorescence ratio came out at 1.08 ± 0.097.

Take ATGTTTTTGT: the switch fluorescence ratio was 0.989 ± 0.042.

Take CTGTCTTATG: the switch fluorescence ratio was determined as 1 ± 0.068.

As to ATAGTCGGGC, the switch fluorescence ratio amounted to 0.99 ± 0.022.

With AAAAAAAAAT, the switch fluorescence ratio was 1.04 ± 0.03.

For ACGAGGGGCG, the switch fluorescence ratio is 1 ± 0.045.

On to TGCTTTTTTT, for which the switch fluorescence ratio worked out at 0.966 ± 0.024.

For CTTAGGTTGT, the switch fluorescence ratio came to 1.004 ± 0.0077.

On to TGGAAAAGAT, for which the switch fluorescence ratio was determined as 0.995 ± 0.016.

With CCCGAGTTAT, the switch fluorescence ratio worked out at 1.067 ± 0.01.

For the sequence ATGCCGATCG, the switch fluorescence ratio was 1.05 ± 0.021.

Turning to CGATGGGCAG, the switch fluorescence ratio is 1.04 ± 0.061.

Consider AGAACATTGG, for which the switch fluorescence ratio turned out to be 0.985 ± 0.013.

Turning to ACGGGGACTG, the switch fluorescence ratio is 1.0927 ± 0.00086.

Consider TATGTGGAGT, for which the switch fluorescence ratio came out at 0.9924 ± 0.0089.

Turning to TTTGAGTGAC, the switch fluorescence ratio was 1.01 ± 0.031.

With TAACACGGTA, the switch fluorescence ratio came to 1.16 ± 0.0035.

As for TTTGTGGGAG, the switch fluorescence ratio amounted to 0.998 ± 0.02.

As to GGGTACAGGG, the switch fluorescence ratio came to 1 ± 0.02.

Take TGTGAGCTTT: the switch fluorescence ratio was found to be 0.975 ± 0.03.

Take CAGGGCTCCC: the switch fluorescence ratio amounted to 1.01 ± 0.02.

Take TTGTAGGGAT: the switch fluorescence ratio was found to be 1.43 ± 0.77.

On to GAGATACATG, for which the switch fluorescence ratio came to 1.02 ± 0.044.

Regarding TGTTCTTCCG, the switch fluorescence ratio came to 1.23 ± 0.1.

ACGATAATTT: the switch fluorescence ratio is 1.18 ± 0.035.

For the sequence TAGGCTGGGT, the switch fluorescence ratio came to 0.992 ± 0.014.

Turning to GGGGTGGCGA, the switch fluorescence ratio amounted to 1.01 ± 0.045.

As for TTTTTGCTCG, the switch fluorescence ratio was 1 ± 0.03.

Take CGCTGTGGAG: the switch fluorescence ratio is 1.01 ± 0.012.

As for TGGGAGCCTG, the switch fluorescence ratio is 0.987 ± 0.015.

Regarding AGGTCTGTGG, the switch fluorescence ratio was determined as 0.982 ± 0.04.

As for CAGTGGAGCC, the switch fluorescence ratio was 1.01 ± 0.034.

For the sequence AAAGAGGGAT, the switch fluorescence ratio was determined as 0.986 ± 0.053.

TATCATAAGT: the switch fluorescence ratio came to 1.016 ± 0.0077.

On to CTATACAGTG, for which the switch fluorescence ratio turned out to be 1.02 ± 0.011.

Turning to CTAGGTGGGT, the switch fluorescence ratio was 1.01 ± 0.027.

As for GCTTTGTGAT, the switch fluorescence ratio amounted to 1.01 ± 0.066.

As to TGATTGCAGC, the switch fluorescence ratio turned out to be 0.994 ± 0.028.

GGGATACGGT: the switch fluorescence ratio was determined as 1.0248 ± 0.00074.

As to ATGTTCAAAG, the switch fluorescence ratio was determined as 0.975 ± 0.017.

In the case of GTAGGTAGTT, the switch fluorescence ratio stood at 1.09 ± 0.14.

For the sequence GCAGATGGTT, the switch fluorescence ratio came to 1.01 ± 0.015.

Regarding CCGATTTGGC, the switch fluorescence ratio is 1.14 ± 0.044.

Consider ACCTATGAGG, for which the switch fluorescence ratio was 1.02 ± 0.029.

For TTGGCCATGA, the switch fluorescence ratio was determined as 0.976 ± 0.029.

For TTCATATGTT, the switch fluorescence ratio came out at 0.981 ± 0.012.

For GTTATTCATT, the switch fluorescence ratio was found to be 1.004 ± 0.0034.

On to ATGTAGGCCA, for which the switch fluorescence ratio is 1.04 ± 0.053.

As for CATTGGGAGA, the switch fluorescence ratio worked out at 0.984 ± 0.011.

As to TATGGAAGCC, the switch fluorescence ratio worked out at 0.982 ± 0.034.

With GGCTAAGGGT, the switch fluorescence ratio was found to be 0.995 ± 0.013.

For the sequence TGCCGCTTAA, the switch fluorescence ratio is 1.193 ± 0.0089.

On to TATGTGCTTG, for which the switch fluorescence ratio was determined as 0.991 ± 0.021.

As to TCACCGTTCT, the switch fluorescence ratio came out at 1.03 ± 0.032.

For the sequence GGCAGTACGT, the switch fluorescence ratio was 1.27 ± 0.066.

Consider TAAAAAAGGT, for which the switch fluorescence ratio worked out at 1.04 ± 0.088.

For AGCGCAAGAT, the switch fluorescence ratio is 1.791 ± 0.013.

For TTTGAAAAGT, the switch fluorescence ratio turned out to be 1.022 ± 0.0028.

Regarding GTGGACAGGG, the switch fluorescence ratio was found to be 1 ± 0.013.

Take ATAGGTCTTC: the switch fluorescence ratio came to 0.983 ± 0.059.

Take TTTTATTTTG: the switch fluorescence ratio came to 1.01 ± 0.057.

For the sequence TATTCAGAAA, the switch fluorescence ratio stood at 1.02 ± 0.054.

As to CATCGGGGTA, the switch fluorescence ratio was found to be 1.02 ± 0.029.

In the case of GAGGGTGGGA, the switch fluorescence ratio was found to be 0.983 ± 0.031.

Turning to GTCGTTTAAA, the switch fluorescence ratio came out at 0.9898 ± 0.0062.

Regarding ATGATCAGCT, the switch fluorescence ratio was determined as 0.9824 ± 0.0077.

Turning to TCCTGGCAAA, the switch fluorescence ratio was determined as 1.59 ± 0.6.

As to GCTAAAAGGA, the switch fluorescence ratio was 0.975 ± 0.021.

In the case of CATGGGGAGT, the switch fluorescence ratio worked out at 0.969 ± 0.024.

Regarding ACGGAGGGAA, the switch fluorescence ratio amounted to 1.07 ± 0.085.

For GCTGATTGTG, the switch fluorescence ratio was found to be 1 ± 0.023.

Consider GCGTCAGGCG, for which the switch fluorescence ratio stood at 0.971 ± 0.026.

Take TTCCAATGTG: the switch fluorescence ratio was determined as 1.01 ± 0.029.

As to TAGGATATGG, the switch fluorescence ratio came out at 1 ± 0.017.

Turning to AGTCAATTGC, the switch fluorescence ratio was 1 ± 0.033.

CGCGGAGGGA: the switch fluorescence ratio stood at 1.02 ± 0.0082.

On to GTATGCCGGG, for which the switch fluorescence ratio is 0.939 ± 0.057.

As to GAAAAAATGT, the switch fluorescence ratio was found to be 0.967 ± 0.028.

In the case of TGTGGAAGGA, the switch fluorescence ratio worked out at 0.9862 ± 0.0039.

For GGCTATTATT, the switch fluorescence ratio is 0.985 ± 0.025.

TATTGGGTTT: the switch fluorescence ratio is 0.996 ± 0.022.

As to CGCATAGAAA, the switch fluorescence ratio was 1.02 ± 0.045.

Turning to CTTGATTATA, the switch fluorescence ratio turned out to be 1.007 ± 0.0061.

Take TGATTTGACA: the switch fluorescence ratio came to 1.01 ± 0.013.

For GACCGTGGGG, the switch fluorescence ratio is 1 ± 0.027.

As to GCTCGACGGC, the switch fluorescence ratio was found to be 1.017 ± 0.0018.

Turning to TGGGAAGACC, the switch fluorescence ratio stood at 1.02 ± 0.025.

Take CGTGCATTGA: the switch fluorescence ratio turned out to be 1.03 ± 0.022.

In the case of ATTCTCGTGC, the switch fluorescence ratio is 1.012 ± 0.0074.

As for ATGACAGAAG, the switch fluorescence ratio is 1.03 ± 0.05.

On to GGGTTAATGA, for which the switch fluorescence ratio was determined as 1 ± 0.048.

As to TTTTGTGAGC, the switch fluorescence ratio stood at 0.996 ± 0.021.
